Data from patent US20190015473A1 (MIT, published 2019).

Target: T1, Sin3A, endogenous in Neuro2A cells (UniProt Q60520 1-1274, limits assumed)
T1 sequence (looked up): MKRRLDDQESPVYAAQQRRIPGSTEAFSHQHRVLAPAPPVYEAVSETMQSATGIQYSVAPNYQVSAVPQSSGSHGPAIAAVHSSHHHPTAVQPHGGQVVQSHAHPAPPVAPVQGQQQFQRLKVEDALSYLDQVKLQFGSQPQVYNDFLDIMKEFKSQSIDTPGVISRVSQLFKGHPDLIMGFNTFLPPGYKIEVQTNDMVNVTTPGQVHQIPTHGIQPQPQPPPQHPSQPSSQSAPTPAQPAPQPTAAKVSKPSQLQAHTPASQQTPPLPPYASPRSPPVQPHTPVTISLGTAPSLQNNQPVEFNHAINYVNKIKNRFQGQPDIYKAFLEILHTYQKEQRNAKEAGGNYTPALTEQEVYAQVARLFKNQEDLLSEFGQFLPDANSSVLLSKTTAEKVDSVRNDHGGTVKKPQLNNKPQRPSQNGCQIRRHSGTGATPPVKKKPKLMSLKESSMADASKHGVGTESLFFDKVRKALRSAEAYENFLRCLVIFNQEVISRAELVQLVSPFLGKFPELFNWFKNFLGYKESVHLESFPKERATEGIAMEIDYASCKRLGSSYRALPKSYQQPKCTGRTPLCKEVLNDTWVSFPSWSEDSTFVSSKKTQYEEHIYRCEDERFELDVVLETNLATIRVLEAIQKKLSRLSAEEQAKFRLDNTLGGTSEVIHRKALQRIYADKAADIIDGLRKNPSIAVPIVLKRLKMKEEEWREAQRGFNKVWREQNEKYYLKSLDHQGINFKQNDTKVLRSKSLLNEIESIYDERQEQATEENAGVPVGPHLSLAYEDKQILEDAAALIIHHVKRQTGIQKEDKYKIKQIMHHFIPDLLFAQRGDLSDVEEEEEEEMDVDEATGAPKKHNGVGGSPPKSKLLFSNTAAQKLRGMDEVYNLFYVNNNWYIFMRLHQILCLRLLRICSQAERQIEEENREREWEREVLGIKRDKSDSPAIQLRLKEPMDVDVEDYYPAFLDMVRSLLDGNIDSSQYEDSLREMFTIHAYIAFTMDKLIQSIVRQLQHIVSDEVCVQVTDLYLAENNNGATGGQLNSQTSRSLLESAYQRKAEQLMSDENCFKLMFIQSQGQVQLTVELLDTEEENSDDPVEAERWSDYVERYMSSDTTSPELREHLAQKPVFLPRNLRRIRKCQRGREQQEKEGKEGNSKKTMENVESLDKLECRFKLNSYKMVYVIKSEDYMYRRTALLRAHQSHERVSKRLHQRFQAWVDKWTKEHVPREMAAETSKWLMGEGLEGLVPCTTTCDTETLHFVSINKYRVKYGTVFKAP
Experiment: co-immunoprecipitation (anti-Flag) from transfected N2A cells, western blot
Description: Brain tissues or cell pellets were lysed in 50 mM Tris-HCl (pH8.0), 150 mM NaCl, 1 mM EDTA, 1% NP-40, and complete protease inhibitor cocktail (Roche) with 20 strokes using the Dounce tight homogenizer. After centrifugation at 10000×g twice for 10 min, supernatants were subjected to co-immunoprecipitation or western blot analysis (Bio-rad). Two micrograms of anti-HDAC2 antibody (ab12169) or 15 μL of anti-Flag M2 affinity gels (Sigma) were used for immunoprecipitations. The antibodies used for immunoblotting were anti-HDAC2 (1 μg/mL, ab12169), anti-Sp3 (1 μg/mL, sc-644 X), anti-Sin3A (1 μg/mL, Abcam; ab3479), and […] (1:500, Sigma; F2043).
If the divergent C-terminus of HDAC2 alone is capable of binding to Sp3, the HDAC2-Sp3 interaction may potentially be inhibited through over-expression of this domain. To test this, the C-terminal domain of either HDAC2 (termed 2C) or HDAC1 (termed 1C) fused with mCherry, or mCherry alone, was transfected into neuronal N2A cells. Using co-IP experiments it was shown that 2C, but not 1C or mCherry alone, robustly bound to endogenous Sp3 (FIG. 6A). Importantly, binding of 2C to Sin3A, a well characterized partner of the HDAC1/2 complexes that controls cell cycle progression, was not detected.

binding result: no binding
B1: C-terminal domain of HDAC2 (termed 2C) fused with mCherry, flag-tagged (other, UniProt Q92769 390-488, looked up)
chain: VHEDSGDEDGEDPDKRISIRASDKRIACDEEFSDSEDEGEGGRRNVADHKKGAKKARIEEDKKETEDKKTDVKEEDKSKDNSGEKTDTKGTKSEQLSNP
notes: The part order follows the printed name 'mCherry-2C'; the Flag position is unknown; also called mCherry-2C; HDAC2 C-terminal fragment (2C); not shown: Flag tag; mCherry (engineered red fluorescent protein)
